According to patent US20210403565A1 (BIOATLA, published 2021):

Experiments:
[1] = target: T1, recombinant human CTLA4 extracellular domain (human, UniProt P16410 36-161); assay: ELISA, wells coated with human CTLA4, assay pH 7.4; lot 6978 in Tris buffer, T0; curve still rising at log 3 (OD450 at most about 0.3), no plateau; unit from the axis Log[ng/mL]
T1 construct: extracellular domain; also called huCTLA-4
T1 sequence (looked up): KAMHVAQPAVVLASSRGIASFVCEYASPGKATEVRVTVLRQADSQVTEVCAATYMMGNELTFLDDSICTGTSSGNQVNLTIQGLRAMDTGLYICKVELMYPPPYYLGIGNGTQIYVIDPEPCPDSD
Experimental: (§1) Both ELISA and FACS analysis were used to measure the binding activity. […] The amount of bound antibodies was quantified using anti-human IgG antibody conjugated to HRP. The absorbance at 450 nm in each measurement was proportional to the amount of antibodies bound. […] EC50 value (in ng/mL) for binding to human CTLA4 was determined by absorbance at 450 nm against antibody concentration with Prism variable slope of four-parameter dose-response curve, which was calculated using the nonlinear fit (variable slope, four parameters) model built into GraphPad Prism software (version 7.03). The buffers tested included His buffer (His), Tris buffer (Tris), Glutamine buffer (Glu) and no buffer.

[2] = target: T1, recombinant human CTLA4 extracellular …; assay: ELISA, wells coated with human CTLA4, assay pH 7.4; lot 6978 in Glu buffer, T2W; curve still rising at log 3 (OD450 at most about 0.3), no plateau; unit from the axis Log[ng/mL]
Experimental: as §1

[3] = target: T1, recombinant human CTLA4 extracellular …; assay: ELISA, wells coated with human CTLA4, assay pH 6.0; lot 6978 in Tris buffer, T2W; unit from the axis Log[ng/mL]
Experimental: as §1

[4] = target: T2, human CTLA4 expressed on the cell surface of CHO cells (human, UniProt P16410 36-223); assay: FACS, cells expressing human CTLA4, assay pH 7.4, MFI; lot 6978 in Glu buffer, T2W; unit from the axis Log[ng/mL]
T2 construct: whole, on cells; also called CHO-huCTLA4; huCTLA4
T2 sequence (looked up): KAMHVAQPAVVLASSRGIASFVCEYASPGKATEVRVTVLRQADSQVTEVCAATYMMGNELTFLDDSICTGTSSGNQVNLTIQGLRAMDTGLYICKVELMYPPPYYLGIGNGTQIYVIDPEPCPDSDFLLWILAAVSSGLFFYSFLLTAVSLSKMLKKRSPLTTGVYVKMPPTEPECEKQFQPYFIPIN
Experimental: (§2) The amount of bound antibodies was quantified using anti-human IgG antibody conjugated to fluorophores. The MFI in each reaction was proportional to the amount of antibodies bound. The EC₅₀ value (in ng/mL) for binding to human CTLA4 on cells was determined by MFI of the singlets population against antibody concentration with a Prism variable slope of four-parameter dose-response curve, which was calculated using the nonlinear fit (variable slope, four parameters) model built into GraphPad Prism software (version 7.03).

[5] = target: T2, human CTLA4 expressed on the cell …; assay: FACS, cells expressing human CTLA4, assay pH 7.4, MFI; lot 6972 in His buffer, T0; unit from the axis Log[ng/mL]
Experimental: as §2

[6] = target: T2, human CTLA4 expressed on the cell …; assay: FACS, cells expressing human CTLA4, assay pH 7.4, MFI; lot 6972 in Tris buffer, T2W; unit from the axis Log[ng/mL]
Experimental: as §2

[7] = target: T1, recombinant human CTLA4 extracellular …; assay: ELISA, wells coated with human CTLA4, assay pH 7.4; lot 6972 in His buffer, T0; unit from the axis Log[ng/mL]
Experimental: as §1

[8] = target: T1, recombinant human CTLA4 extracellular …; assay: ELISA, wells coated with human CTLA4, assay pH 6.0; lot 6972 in Glu buffer, T2W; unit from the axis Log[ng/mL]
Experimental: as §1

[9] = target: T2, human CTLA4 expressed on the cell …; assay: FACS, cells expressing human CTLA4, assay pH 6.0, MFI; lot 6972 in His buffer, T2W; unit from the axis Log[ng/mL]
Experimental: as §2

[10] = target: T2, human CTLA4 expressed on the cell …; assay: FACS, cells expressing human CTLA4, assay pH 6.0, MFI; lot 6972 in Glu buffer, T0; unit from the axis Log[ng/mL]
Experimental: as §2

[11] = target: T3, cynomolgus CTLA4 expressed on the cell surface of CHO cells (cynomolgus, UniProt G7PL88 36-223); assay: FACS saturation, CHO-cynoCTLA-4, pH 7.4, MFI, titration up to about log 6.5; reaches about 330000 against about 700000 for Ipi Analogue; no unit in the table, unit from the axis Log Antibodies [ng/ml]
T3 construct: whole, on cells; also called CHO-cynoCTLA4
T3 sequence: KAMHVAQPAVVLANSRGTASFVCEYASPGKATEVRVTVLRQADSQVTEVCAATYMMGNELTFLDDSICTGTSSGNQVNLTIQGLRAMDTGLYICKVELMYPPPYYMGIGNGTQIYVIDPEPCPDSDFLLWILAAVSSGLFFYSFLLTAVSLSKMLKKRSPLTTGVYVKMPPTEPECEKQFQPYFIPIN
Experimental: The amount of antibodies bound on the cells was quantified using anti-human IgG antibody conjugated to fluorophores. EC₅₀ values at pH 6.0 and 7.4 for binding to cells were calculated using the nonlinear fit (variable slope, four parameters) model built into GraphPad Prism software (version 7.03). The expression levels of human CTLA4 or cynomolgus CTLA4 on the surface of the CHO cells were determined using a BD QuantiBRITE™ PE kit.
Finally, saturations of the antibodies on the CHO cells expressing human or cynomolgus CTLA4 at pH 7.4 were also measured by FACS (FIGS. 8A-8B).

[12] = target: T2, human CTLA4 expressed on the cell …; assay: FACS, cells expressing human CTLA4, assay pH 6.0, MFI; lot 6972 control without test buffer; same column repeated in FIG. 10B and FIG. 10C; unit from the axis Log[ng/mL]
Experimental: as §2

B1: BA-087-08-32 (antibody, V domains shown)
VH: EVQLVQSGAEVKKPGATVKISCKVSGFTFSHYTMHWIRQSPSRGLEWLGFISYDGNYKYYADSVKGRFTISRDNAKNSLYLQMNSLRAEDTAVYYCARTGWLGPFDYWGQGTLVTVSS
VL: EIVMTQSPATLSVSPGERATLSCRASQSVGSSYLAWYQQKPGKAPKLLIYGAFSRATGVPSRFSGSGSGTDFTLTISSLQPEDFATYYCQQDGSSPWTFGQGTKVEIK
notes: Detected with anti-human IgG and a molecular weight of 146 kDa was used in SPR, so it was tested as a whole IgG; also called BA-087-08-032; BA-087-08-32 (# 6978)
B1 showed an EC50 [1] of 1.14 µg/mL, an EC50 [2] of 0.724 µg/mL and an EC50 [3] of 0.014 µg/mL. It also gave an EC50 [4] of 1.41 µg/mL.

B2: BA-087-05-19 (antibody, V domains shown)
VH: EVQLVESGGGLVQPGGSLRLSCAASGFTFSHYTMHWVRQAPGKGLEWVSFISYDGNNKYYADSVKGRFTISRDNSKNTLYLQMNSLRAEDTAVYYCARTGWLGPFDYWGQGTLVTVSS
VL: AIQLTQSPSSLSASVGDRVTITCRASQYVGSSYLAWYLQKPGQSPQLLIYGAFSRATGIPARFSGSGSGTEFTLTISSLQSEDFAVYYCQQDGSSPWTFGQGTKVEIK
notes: Detected with anti-human IgG and a molecular weight of 146 kDa was used in SPR, so it was tested as a whole IgG; also called BA-087-05-019; BA-087-05-19 (# 6972)
In the case of B2, the EC50 [5] is reported as 0.433 µg/mL, the EC50 [6] is reported as 0.537 µg/mL and the EC50 [7] is reported as 0.0544 µg/mL. The EC50 [8] was 0.00266 µg/mL, the EC50 [9] was 0.295 µg/mL and the EC50 [10] was 0.291 µg/mL. It also gave an EC50 [11] of 13 µg/mL and an EC50 [12] of 0.223 µg/mL.
